Test results as given in PMC5582858, “The yeast kinesin-5 Cin8 interacts with the microtubule in a noncanonical manner” (The Journal of Biological Chemistry, 2017).

Key:
[1] = target: Paclitaxel-stabilized microtubules (bovine brain αβ-tubulin) (bovine) (UniProt Q6B856); test: co-sedimentation; 3 μM Cin8, 1 μM microtubules, no added nucleotide or 1 mM ATP, ADP or AMPPNP, low and high ionic strength; SDS-PAGE of supernatant and pellet
[2] = target: Paclitaxel-stabilized microtubules (bovine brain αβ-tubulin) (bovine) (UniProt Q6B856)

## Cin8-His-Δ99 (Cin8 motor domain in which the 99-residue loop 8 insert is substituted with the 7-residue loop 8 of Kip1) (from UniProt P27895 70-535) (domain or fragment)
[1]
  stoichiometry N: 1.3
[2]
  K0.5,MT of the microtubule-stimulated steady-state ATPase (NADH coupled assay), 21 mM ionic strength: 1.3 µM
